Source: US20220162261A1 (published 2022)
Bridge positions count the residues as written; N and C are the ends. Square brackets hold non-standard residues; d marks the D form. Ends that are not written are not given here. Phe(4-COOH) = N[C@@H](Cc1ccc(C(=O)O)cc1)C(=O)O; Phe(4-tBu) = CC(C)(C)c1ccc(C[C@H](N)C(=O)O)cc1; NMeR = CN[C@@H](CCCNC(=N)N)C(=O)O; NMeE = CN[C@@H](CCC(=O)O)C(=O)O; β3hE = N[C@@H](CCC(=O)O)CC(=O)O; DIG = diglycolic acid (linker); Pen = CC(C)(S)[C@H](N)C(=O)O

B1: SEQ ID NO: 1 (peptide)
peptide: Ac-[Pen][NMeR]SDTL[Pen]W[βGlu][dK]-NH2
modifications: disulfide 1-7; not fully specified (residue 10); printed as (Ac Pen N-Me-R S D T L Pen W Beta-E k NH2)2 DIG; also: homodimer: two subunits joined by DIG linker
B2: SEQ ID NO: 186 (peptide)
peptide: Ac-[Pen][NMeR]SDIL[Pen][Phe(4-tBu)][β3hE][dK]-NH2
modifications: disulfide 1-7; not fully specified (residue 10); printed as (Ac Pen N-Me-R S D I L Pen F(4-tBu) b-H-E k NH2)2 IDA, disulfide Pen-Pen; also: homodimer: two subunits joined by IDA linker
B3: SEQ ID NO: 31 (peptide)
peptide: Ac-[Pen][NMeR]SDTL[Pen]W[NMeE][dK]-NH2
modifications: disulfide 1-7; not fully specified (residue 10); printed as (Ac Pen N-Me-R S D T L Pen W N-Me-E k NH2)2 DIG, disulfide Pen-Pen; also: dimer, two subunits joined by DIG linker
B4: SEQ ID NO: 91 (peptide)
peptide: Ac-[Pen][NMeR]SDTL[Pen]W[dF][dK]-NH2
modifications: disulfide 1-7; not fully specified (residue 10); printed as (Ac Pen N-Me-R S D T L Pen W f k NH2)2 DIG, disulfide Pen-Pen; also: homodimer via DIG linker
B5: SEQ ID NO: 85 (peptide)
peptide: Ac-[Pen][NMeR]SDTL[Pen]WF[dK]-NH2
modifications: disulfide 1-7; not fully specified (residue 10); printed as (Ac Pen N-Me-R S D T L Pen W F k NH2)2 DIG, disulfide Pen-Pen; also: homodimer: two subunits linked by DIG via D-Lys10 side chain
B6: SEQ ID NO: 83 (peptide)
peptide: Ac-[Pen][NMeR]SDTL[Pen]WN[dK]-NH2
modifications: disulfide 1-7; not fully specified (residue 10); printed as (Ac Pen N-Me-R S D T L Pen W N k NH2)2 DIG, disulfide Pen-Pen; also: homodimer: two subunits linked by DIG via D-Lys10 side chain
B7: SEQ ID NO: 123 (peptide)
peptide: Ac-[Pen][NMeR]SDTL[Pen]Y[dE][dK]-NH2
modifications: disulfide 1-7; not fully specified (residue 10); printed as (Ac Pen N-Me-R S D T L Pen Y e k NH2)2 DIG, disulfide Pen-Pen; also: homodimer: two subunits joined by DIG linker
B8: SEQ ID NO: 70 (peptide)
peptide: Ac-[Pen][NMeR]SDTL[Pen]W[dE][dK]-NH2
modifications: disulfide 1-7; not fully specified (residue 10); printed as (Ac Pen N-Me-R S D T L Pen W e k NH2)2 IDA, disulfide Pen-Pen; also: homodimer via IDA linker
B9: SEQ ID NO: 87 (peptide)
peptide: Ac-[Pen][NMeR]SDTL[Pen]WD[dK]-NH2
modifications: disulfide 1-7; not fully specified (residue 10); printed as (Ac Pen N-Me-R S D T L Pen W D k NH2)2 DIG, disulfide Pen-Pen; also: homodimer: two subunits linked by DIG via D-Lys10 side chain
B10: SEQ ID NO: 110 (peptide)
peptide: Ac-[Pen][NMeR]SDTL[Pen]W[dW][dK]-NH2
modifications: disulfide 1-7; not fully specified (residue 10); printed as (Ac Pen N-Me-R S D T L Pen W w k NH2)2 DIG, disulfide Pen-Pen; also: homodimer: two subunits joined by DIG linker
B11: SEQ ID NO: 92 (peptide)
peptide: Ac-[Pen][NMeR]SDTL[Pen]W[dY][dK](DIG)-NH2
modifications: disulfide 1-7; also: homodimer (…)2 DIG: the two subunits are joined through the K10 NZ by the DIG linker
B12: SEQ ID NO: 82 (peptide)
peptide: Ac-[Pen][NMeR]SDTL[Pen]WQ[dK]-NH2
modifications: disulfide 1-7; not fully specified (residue 10); printed as (Ac Pen N-Me-R S D T L Pen W Q k NH2)2 DIG, disulfide Pen-Pen; also: homodimer: two subunits linked by DIG via D-Lys10 side chain
B13: SEQ ID NO: 26 (peptide)
peptide: Ac-[Pen][NMeR]SDTL[Pen]HY[dK]-NH2
modifications: disulfide 1-7; not fully specified (residue 10); printed as (Ac Pen N-Me-R S D T L Pen H Y k NH2)2 DIG, disulfide Pen-Pen; also: dimer, two subunits joined by DIG linker
B14: SEQ ID NO: 72 (peptide)
peptide: Ac-[Pen][NMeR]SDTL[Pen]W[dE][dK]-NH2
modifications: disulfide 1-7; not fully specified (residue 10); printed as (Ac Pen N-Me-R S D T L Pen W e k NH2)2 IDA PEG4 Biotine, disulfide Pen-Pen; also: homodimer: two subunits linked by IDA via D-Lys10 side chain, PEG4-Biotine on the linker
B15: SEQ ID NO: 71 (peptide)
peptide: Ac-[Pen][NMeR]SDTL[Pen]W[dE][dK]-NH2
modifications: disulfide 1-7; not fully specified (residue 10); printed as (Ac Pen N-Me-R S D T L Pen W e k NH2)2 IDA Biotine, disulfide Pen-Pen; also: homodimer via IDA linker bearing biotin
B16: SEQ ID NO: 104 (peptide)
peptide: Ac-[Pen][NMeR]SDTL[Pen]W[dH][dK]-NH2
modifications: disulfide 1-7; not fully specified (residue 10); printed as (Ac Pen N-Me-R S D T L Pen W h k NH2)2 DIG, disulfide Pen-Pen; also: homodimer: two subunits joined by DIG linker
B17: SEQ ID NO: 94 (peptide)
peptide: Ac-[Pen][NMeR]SDTL[Pen]WP[dK](DIG)-NH2
modifications: disulfide 1-7; also: homodimer (…)2 DIG: the two subunits are joined through the K10 NZ by the DIG linker
B18: SEQ ID NO: 28 (peptide)
peptide: Ac-[Pen][NMeR]SDTL[Pen][dW]E[dK]-NH2
modifications: disulfide 1-7; not fully specified (residue 10); printed as (Ac Pen N-Me-R S D T L Pen w E k NH2)2 DIG, disulfide Pen-Pen; also: dimer, two subunits joined by DIG linker
B19: SEQ ID NO: 95 (peptide)
peptide: Ac-[Pen][NMeR]SDTL[Pen]WPK(DIG)-NH2
modifications: disulfide 1-7; also: homodimer (…)2 DIG: the two subunits are joined through the K10 NZ by the DIG linker
B20: SEQ ID NO: 25 (peptide)
peptide: Ac-[Pen][NMeR]SDTL[Pen]HE[dK]-NH2
modifications: disulfide 1-7; not fully specified (residue 10); printed as (Ac Pen N-Me-R S D T L Pen H E k NH2)2 DIG, disulfide Pen-Pen; also: dimer, two subunits joined by DIG linker
B21: SEQ ID NO: 124 (peptide)
peptide: Ac-[Pen][NMeR]SDTL[Pen]H[dE][dK]-NH2
modifications: disulfide 1-7; not fully specified (residue 10); printed as (Ac Pen N-Me-R S D T L Pen H e k NH2)2 DIG, disulfide Pen-Pen; also: homodimer: two subunits joined by DIG linker
B22: SEQ ID NO: 105 (peptide)
peptide: Ac-[Pen][NMeR]SDTL[Pen]W[Phe(4-COOH)][dK]-NH2
modifications: disulfide 1-7; not fully specified (residue 10); printed as (Ac Pen N-Me-R S D T L Pen W F(4-COOH) k NH2)2 DIG, disulfide Pen-Pen; also: homodimer: two subunits joined by DIG linker

The binders below were run against T1, human α4β7 integrin on cells (human, UniProt P13612 34-1032; P26010 20-798) (assay: RPMI8866 cell adhesion to MAdCAM-1).
T1 construct: whole, on cells; also called α4β7 cell (Hu); RPMI8866 cells

B1 and Ac-[Pen][NMeR]SDTL[Pen]W[dE][dK](Ac) (disulfide 1-7) [SEQ ID NO: 66] cannot be ordered by IC50: greater than 50 nM for the first, greater than 10000 nM for the second.

B2 and B3 cannot be ordered by IC50: greater than 100 nM for the first, greater than 50 nM for the second.

First: B4
Second: B5
The IC50 of the first is higher: greater than 100 nM for the first, no more than 10 nM for the second. The second is the more potent here.

B6 and B7 cannot be ordered by IC50: greater than 50 nM for the first, greater than 50 nM for the second.

B8 and Ac-[Pen][NMeR]SDTL[Pen]W[dP]K-NH2 (disulfide 1-7; also: homodimer, two subunits linked by DIG at Lys10) [SEQ ID NO: 96] cannot be ordered by IC50: greater than 25 nM for the first, greater than 50 nM for the second.

B9 and B10 cannot be ordered by IC50: greater than 25 nM for the first, greater than 10 nM for the second.

B11 and Ac-[Pen][NMeR]SDTL[Pen]WE[dK](Ac) (disulfide 1-7) [SEQ ID NO: 65] cannot be ordered by IC50: greater than 50 nM for the first, greater than 10000 nM for the second.

B12 and B13 cannot be ordered by IC50: greater than 50 nM for the first, greater than 100 nM for the second.

B14 and B15 cannot be ordered by IC50: greater than 25 nM for the first, greater than 25 nM for the second.

B16 and B17 cannot be ordered by IC50: greater than 100 nM for the first, greater than 100 nM for the second.

B18 and B19 cannot be ordered by IC50: greater than 50 nM for the first, greater than 100 nM for the second.

B20 and B21 cannot be ordered by IC50: greater than 10 nM for the first, greater than 100 nM for the second.

B22 and Ac-[dK]C[NMeR]SDTLCW[dK]-NH2 (disulfide 2-8 (inferred); also: dimer linked by DIG, attachment not given here) [SEQ ID NO: 4] cannot be ordered by IC50: greater than 50 nM for the first, greater than 10 nM for the second.
